T1: C4b binding protein (C4bp) (Homo sapiens, UniProt P04003)
T1 construct: incubated with 10% NHS as source of C4bp; from tissue; host or cells: 10% NHS (serum)
T1 sequence (P04003 49-597): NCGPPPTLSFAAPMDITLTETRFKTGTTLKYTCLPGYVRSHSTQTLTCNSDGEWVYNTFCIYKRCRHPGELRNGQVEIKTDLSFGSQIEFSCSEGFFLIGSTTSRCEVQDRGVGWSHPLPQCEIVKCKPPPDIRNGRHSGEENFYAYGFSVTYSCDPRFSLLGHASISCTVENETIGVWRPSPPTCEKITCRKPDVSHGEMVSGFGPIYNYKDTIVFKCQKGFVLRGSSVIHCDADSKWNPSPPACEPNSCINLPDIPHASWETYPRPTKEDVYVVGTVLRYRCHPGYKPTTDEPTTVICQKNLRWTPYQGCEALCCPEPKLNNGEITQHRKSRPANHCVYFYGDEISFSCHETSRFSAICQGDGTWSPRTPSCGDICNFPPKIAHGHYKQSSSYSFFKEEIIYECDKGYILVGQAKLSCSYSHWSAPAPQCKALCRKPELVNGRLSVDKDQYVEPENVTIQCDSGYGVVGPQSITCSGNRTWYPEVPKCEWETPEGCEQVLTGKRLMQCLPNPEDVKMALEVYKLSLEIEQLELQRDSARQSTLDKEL
T1 sequence (P20851 18-252 partner): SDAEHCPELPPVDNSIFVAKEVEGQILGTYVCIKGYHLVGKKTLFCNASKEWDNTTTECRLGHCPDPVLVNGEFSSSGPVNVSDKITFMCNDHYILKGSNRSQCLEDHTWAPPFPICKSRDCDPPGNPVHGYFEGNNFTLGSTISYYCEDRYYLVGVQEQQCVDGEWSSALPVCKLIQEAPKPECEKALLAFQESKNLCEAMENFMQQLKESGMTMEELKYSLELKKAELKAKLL

T2: C4b binding protein (C4bp) (Homo sapiens, UniProt P04003)
T2 sequence (P04003 49-597): T1 sequence (P04003 49-597)

B1: OmpA: gonococcal OmpA protein, SEQ ID 2; expressed in E. coli with C-terminal His-tag and purified (protein, listed as Neisseria gonorrhoeae)
chain: MTFFKPSTVVLTASALALSGCVADPVTGQQSPNKSAMYGLGGAAVCGIVGALTHSGKGARNSALACGAIGAGVGGYMDYQEQRLRQNLAGTQIEIQRQGNQIRLVMPESVTFATGSAALGGSAQYALNTAAQTLVQYPDTTLTINGHTDNTGSDAVNNPLSQHRAQAVAYYLQTRGVAASRLTVYGYGSHMPVASNATVEGRAQNRRVEILINPDQRAVNAARHM
modifications: C-terminal His-tag
notes: expressed in E. coli with C-terminal His-tag and purified
B2: App: gonococcal App autotransporter protein, SEQ ID 7, related to meningococcal adhesion penetration protein (protein, listed as Neisseria gonorrhoeae)
chain: MKTTDKRTTETHRKAPKTGRIRFSPAYLAICLSFGILPQARAGHTYFGINYQYYRDFAENKGKFAVGAKDIEVYNKKGELVGKSMTKAPMIDFSVVSRNGVAALAGDQYIVSVAHNGGYNNVDFGAEGSNPDQHRFSYQIVKRNNYKAGTNGHPYGGDYHMPRLHKFVTDAEPVEMTSYMDGWKYADLNKYPDRVRIGAGRQYWRSDEDEPNNRESSYHIASAYSWLVGGNTFAQNGSGGGTVNLGSEKIKHSPYGFLPTGGSFGDSGSPMFIYDAQKQKWLINGVLQTGNPYIGKSNGFQLVRKDWFYDEIFAGDTHSVFYEPHQNGKYFFNDNNNGAGKIDAKHKHYSLPYRLKTRTVQLFNVSLSETAREPVYHAAGGVNSYRPRLNNGENISFIDKGKGELILTSNINQGAGGLYFEGNFTVSPKNNETWQGAGVHISDGSTVTWKVNGVANDRLSKIGKGTLLVQAKGENQGSVSVGDGKVILDQQADDQGKKQAFSEIGLVSGRGTVQLNADNQFNPDKLYFGFRGGRLDLNGHSLSFHRIQNTDEGAMIVNHNQDKESTVTITGNKDITTTGNNNNLDSKKEIAYNGWFGEKDATKTNGGLNLNYPPEEADRTLLLSGGTNLNGNITQTNGKLFFSGRPTPHAYNHLGSGWSKMEGIPQGEIVWDNDWIDRTFKAENFHIQGGQAVVSRNVAKVEGDWHLSNHAQAVFGVAPHQSHTICTRSDWTGLTSCTEKTITDDKVIASLSKTDVRGNVSLADHAHLNLTGLATFNGNLVQAETRTIRLRANATQNGNLSLVGNAQATFNQATLNGNTSASDNASFNLSNNAVQNGSLTLSDNAKANVSHSALNGNVSLADKAVFHFENSRFTGKISGGKDTALHLKDSEWTLPSGTELGNLNLDNATITLNSAYRHDAAGAQTGSAADAPRRRSRRSLLSVTPPTSAESRFNTLTVNGKLNGQGTFRFMSELFGYRSGKLKLAESSEGTYTLAVNNTGNEPVSLEQLTVVEGKDNTPLSENLNFTLQNEHVDAGAWRYQLIRKDGEFRLHNPVKEQELSDKLGKAGETEAALTAKQAQLAAKQQAEKDNAQSLDALIAAGRNATEKAESVAEPARQAGGENAGIMQAEEEKKRVQADKDTALAKQREAETRPATTAFPRARRARRDLPQPQPQPQPQPQRDLISRYANSGLSEFSATLNSVFAVQDELDRVFAEDRRNAVWTSGIRDTKHYRSQDFRAYRQQTDLRQIGMQKNLGSGRVGILFSHNRTGNTFDDGIGNSARLAHGAVFGQYGIGRFDIGISAGAGFSSGSLSDGIRGKIRRRVLHYGIQARYRAGFGGFGIEPHIGATRYFVQKADYRYENVNIATPGLAFNRYRAGIKADYSFKPAQHISITPYLSLSYTDAASGKVRTRVNTAVLAQDFGKTRSAEWGVNAEIKGFTLSLHAAAAKGPQLEAQHSAGIKLGYRW

Assays:
[1] = molecular target: T1, C4b binding protein (C4bp); assay: ELISA for the interaction of C4bp with immobilized OmpA; conditions: OmpA immobilized from 0.15 mg to 20 mg; 10% NHS as source of C4bp (FIG. 24)
Method: It is known that some antigens contribute to serum resistance by binding to complement regulatory protein C4b binding protein (C4bp), leading to a decrease in serum killing by complement attack. […] In further experiments, purified OmpA and three negative control proteins were immobilized in the wells of a microtiter plate at different concentrations (from 0.15 mg to 20 mg). The wells were blocked with 5% skimmed milk in PBS and then incubated with 10% NHS as source of C4bp.

[2] = molecular target: T2, C4b binding protein (C4bp); assay: Dot blot ligand overlay analysis of C4bp binding; conditions: C4bp 10 mg/ml; OmpA from 0.1 mg to 4 mg (FIG. 23)
[3] = test system: ME-180 human cervical epithelial cells; assay: Immunofluorescence microscopy of purified OmpA binding to epithelial cells; assay type: cell-based; conditions: 1 mg/ml purified OmpA vs PBS control (FIG. 19)
Method: Monolayers of the ME-180 cells were treated with PBS (control) or with 1 mg/ml purified OmpA, labeled using polyclonal mouse antiserum against recombinant Ng OmpA-His, followed by anti-mouse Alexa Fluor 488 conjugated antibodies. The results are in FIG. 19.

complement cascade = assay: C3 binding assay; conditions: FIG. 10

Molecule	bound C4bp (ELISA) [1]	C4bp binding (dot blot) [2]	binding to ME-180 cells [3]	elicitation of complement-activating antibodies (complement cascade)
B1	bound C4bp was detected	binding	binds	
B2				able to elicit antibodies which activate the complement cascade

From patent US20080166370A1, “Immunogenic Compositions Comprising Multiple Gonococcal Antigens” (CHIRON SRL, priority 2003, published 2008)
